From US20150299319A1

Target: KIR2DL1 on human NK cell clones (human) (UniProt P43626)
Assay: cell-based or functional assay

Sequence of UniProt P43626 (P43626 22-348): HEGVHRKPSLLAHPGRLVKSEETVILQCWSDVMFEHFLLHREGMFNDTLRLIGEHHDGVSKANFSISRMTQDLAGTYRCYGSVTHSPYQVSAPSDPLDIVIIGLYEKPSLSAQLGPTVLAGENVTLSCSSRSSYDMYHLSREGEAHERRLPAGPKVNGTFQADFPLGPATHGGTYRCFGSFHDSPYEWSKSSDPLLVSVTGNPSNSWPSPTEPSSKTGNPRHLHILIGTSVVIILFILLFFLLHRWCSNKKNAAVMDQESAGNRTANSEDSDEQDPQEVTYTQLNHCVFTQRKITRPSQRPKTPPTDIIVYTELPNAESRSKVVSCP

lysis of autologous Cw4+ PHA blasts by NK cells with Campath: > 30%
Substance: EB6 monoclonal antibody (IgG1, anti KIR2DL1)
